Tests used:
[1] = test system: transgenic soybean plants; assay: Response of R0 soybean plants transformed with Round 2 TDO variants to mesotrione; format: in vivo; details: same expression elements; Os.TDO control failed transformation in this experiment
From the text: The next set of experiments was focused on determining if the balance between improved enzyme stability could outweigh a reduction in activity observed at optimal temperatures in soybean plants. […] To test this hypothesis, the eight variants from Round 2 biochemical analysis described in the preceding paragraph were transformed into soybean through Agrobacterium-mediated transformation, along with three controls. One of the controls (TDO_9) was a variant from the high-throughput screens that had poor activity. Two other controls were the D08 variant and the Os.TDO. R0 transgenic soybean plants were sprayed with the mesotrione herbicide to screen for herbicide tolerance. […] These included the Os.TDO control, the D08 variant and one Round 2 variant. The plants were scored for percent injury as described in the previous examples.

[2] = Specific activity of purified TDO proteins, second hydroxylation of mesotrione; format: biochemical; details: purified His6-tagged protein from E. coli, FIG. 8
From the text: Activity was expressed as nmol/min/mg protein and was the mean of three separate assays on the same enzyme sample (technical reps).
To test the hypothesis, the four amino acids of sorghum TDO corresponding to amino acid positions 230, 301, 332, and 335 in rice TDO were replaced with those of rice TDO. The corn, rice, sorghum, and the modified sorghum TDO genes were cloned into a pET28 vector for E. coli expression with His6 tag in the N-terminus. Subsequently, the proteins were expressed and purified by affinity chromatography. BL21-CodonPlus (DE3)-RIPL E. coli cells (Stratagene) were used for expression. Cells transformed with expression vector were grown in autoinduction media (AIM) supplemented with 100 μg mL-1 kanamycin and 34 μg mL-1 chloramphenicol.
TDO proteins used in this study were expressed in AIM cells using an auto-induction system as described by Studier (2014). Briefly, the recombinant cultures were grown at 37° C. for 3 hours and then 20° C. for one or two days. Cells were harvested by centrifugation and frozen at −80° C. The pellet was resuspended in lysis buffer (Bper and Yper [Pierce] with ratio 3 to 1, 25 mM Tris-HCl, 300 mM NaCl, 10 mM imidazole, pH 8.0). 150 mM ferric ammonium citrate (1000X) was added to the lysate to a final concentration of 150 µM and incubated on ice for 20 minutes. The lysate was centrifuged to clarify the supernatant. Clear supernatant was loaded onto a 5 mL Ni column connected to AKTA Express (GE Healthcare). […] Protein concentrations were determined spectrophotometrically based on their calculated molar absorption extinction coefficients at 280 nm.
TDO activity was measured by the second hydroxylation of mesotrione. For routine activity measurements of TDO and determining the kinetic properties of the second hydroxylation, the continuous change in A330, which is specific to the second hydroxylation and subsequent non-enzymatic water removal (i.e. the conversion of hydroxy-mesotrione to oxy-mesotrione), was monitored. […] The reaction proceeded until the maximum A330 was obtained (usually 20-120 minutes depending upon the concentration of mesotrione) and the linear portion of the curve was determined by visual inspection. […]
For the activity calculation, aliquots of the reaction were removed at various time points during the reaction and heated at 95° C. to halt the reaction. The reaction mixtures were analyzed by HPLC and mass spectrophotometry. By product conversation followed by peak integration on HPLC, a linear plot was obtained and the extinction co-efficient delta between the substrate (mesotrione) and the second product (oxy-mesotrione) was obtained according to the equation ΔA330=(εp-εs)*bΔp where ΔA330 is the change of absorbance at 330 nm and b is the light path.

B1: Os.TDO: TDO from Oryza sativa (HIS1), SEQ ID NO:2, polynucleotide codon optimized for dicot expression (protein, listed as Oryza sativa)
chain: MADESWRAPAIVQELAAAGVEEPPSRYLLREKDRSDVKLVAAELPEPLPVVDLSRLDGAEEATKLRVALQNWGFFLLTNHGVEASLMDSVMNLSREFFNQPIERKQKFSNLIDGKNFQIQGYGTDRVVTQDQILDWSDRLHLRVEPKEEQDLAFWPDHPESFRDVLNKYASGTKRIRDDIIQAMAKLLELDEDYFLDRLNEAPAFARFNYYPPCPRPDLVFGIRPHSDGTLLTILLVDKDVSGLQVQRDGKWSNVEATPHTLLINLGDTMEVMCNGIFRSPVHRVVTNAEKERISLAMLYSVNDEKDIEPAAGLLDENRPARYRKVSVEEFRAGIFGKFSRGERYIDSLRI
typical injury rating for R0 soybean [1]: high 20% to low 30% | specific activity of the second hydroxylation [2]: highest activity

Source: patent US20250134019A1, “TRIKETONE DIOXYGENASE VARIANTS FOR HERBICIDE TOLERANCE” (Monsanto Technology LLC, priority 2022, published 2025)
